Results taken from the supplement of paper PMC10567573.

B1: FCHO1 (parent)
chain: HLELTRKLQDLIKDVLRYGEEQLK
B2: STK38L (parent)
chain: RQLAYSTVGTPDYIAPEVFMQTGY

Variants of: B1
Assay: protein stability index of a GFP-peptide fusion (GPS, HEK-293T) (PSI 1-6); higher = more stable
Conditions: c terminus: a fixed tail appended
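Further: lentivirally expressed fusions sorted by FACS into six bins by GFP to DsRed ratio, PSI derived from sequencing read proportions per bin multiplied by bin number.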

Variant	protein stability index
HLELTRKLQDLIKDSLRYGEEQLK [V15S]	1.88
HLELTRKLQDLIKDWLRYGEEQLK [V15W]	3.69
HLELTRKLQDLIKDVARYGEEQLK [L16A]	1.04
HLELTRKLQDLIKDVCRYGEEQLK [L16C]	2.91
HLELTRKLQDLIKDVDRYGEEQLK [L16D]	3.32
HLELTRKLQDLIKDVERYGEEQLK [L16E]	3.18
HLELTRKLQDLIKDVFRYGEEQLK [L16F]	2.77
HLELTRKLQDLIKDVGRYGEEQLK [L16G]	2.61
HLELTRKLQDLIKDVHRYGEEQLK [L16H]	2.73
HLELTRKLQDLIKDVIRYGEEQLK [L16I]	2.39
HLELTRKLQDLIKDVKRYGEEQLK [L16K]	1.44
HLELTRKLQDLIKDVMRYGEEQLK [L16M]	2.69
HLELTRKLQDLIKDVNRYGEEQLK [L16N]	2.82
HLELTRKLQDLIKDVPRYGEEQLK [L16P]	2.9
HLELTRKLQDLIKDVQRYGEEQLK [L16Q]	2.54
HLELTRKLQDLIKDVRRYGEEQLK [L16R]	1.69
HLELTRKLQDLIKDVSRYGEEQLK [L16S]	2.09
HLELTRKLQDLIKDVTRYGEEQLK [L16T]	2.25
HLELTRKLQDLIKDVVRYGEEQLK [L16V]	4.13
HLELTRKLQDLIKDVWRYGEEQLK [L16W]	3.05
HLELTRKLQDLIKDVYRYGEEQLK [L16Y]	1.93
HLELTRKLQDLIKDVLAYGEEQLK [R17A]	1.97
HLELTRKLQDLIKDVLCYGEEQLK [R17C]	1.83
HLELTRKLQDLIKDVLDYGEEQLK [R17D]	1.73
HLELTRKLQDLIKDVLEYGEEQLK [R17E]	1.76

Variant	protein stability index
HLELTRKLQDLIKDVLFYGEEQLK [R17F]	3.06
HLELTRKLQDLIKDVLGYGEEQLK [R17G]	1.58
HLELTRKLQDLIKDVLHYGEEQLK [R17H]	3.28
HLELTRKLQDLIKDVLIYGEEQLK [R17I]	1.54
HLELTRKLQDLIKDVLLYGEEQLK [R17L]	2.88
HLELTRKLQDLIKDVLMYGEEQLK [R17M]	1.98
HLELTRKLQDLIKDVLNYGEEQLK [R17N]	2.64
HLELTRKLQDLIKDVLPYGEEQLK [R17P]	2.95
HLELTRKLQDLIKDVLQYGEEQLK [R17Q]	2.26
HLELTRKLQDLIKDVLSYGEEQLK [R17S]	1.46
HLELTRKLQDLIKDVLTYGEEQLK [R17T]	1.54
HLELTRKLQDLIKDVLVYGEEQLK [R17V]	2.61
HLELTRKLQDLIKDVLYYGEEQLK [R17Y]	2.08
HLELTRKLQDLIKDVLRAGEEQLK [Y18A]	2.74
HLELTRKLQDLIKDVLRCGEEQLK [Y18C]	1.61
HLELTRKLQDLIKDVLRDGEEQLK [Y18D]	2.63
HLELTRKLQDLIKDVLREGEEQLK [Y18E]	1.77
HLELTRKLQDLIKDVLRFGEEQLK [Y18F]	2.25
HLELTRKLQDLIKDVLRGGEEQLK [Y18G]	1.83
HLELTRKLQDLIKDVLRHGEEQLK [Y18H]	2.12
HLELTRKLQDLIKDVLRKGEEQLK [Y18K]	3.41
HLELTRKLQDLIKDVLRLGEEQLK [Y18L]	2.53
HLELTRKLQDLIKDVLRMGEEQLK [Y18M]	2.65
HLELTRKLQDLIKDVLRNGEEQLK [Y18N]	1.84
HLELTRKLQDLIKDVLRPGEEQLK [Y18P]	2.42

Variant	protein stability index
HLELTRKLQDLIKDVLRQGEEQLK [Y18Q]	3.96
HLELTRKLQDLIKDVLRRGEEQLK [Y18R]	2.27
HLELTRKLQDLIKDVLRSGEEQLK [Y18S]	1.82
HLELTRKLQDLIKDVLRTGEEQLK [Y18T]	1.88
HLELTRKLQDLIKDVLRVGEEQLK [Y18V]	3.06
HLELTRKLQDLIKDVLRYAEEQLK [G19A]	2.5
HLELTRKLQDLIKDVLRYCEEQLK [G19C]	1.4
HLELTRKLQDLIKDVLRYDEEQLK [G19D]	2.09
HLELTRKLQDLIKDVLRYEEEQLK [G19E]	1.88
HLELTRKLQDLIKDVLRYFEEQLK [G19F]	2.83
HLELTRKLQDLIKDVLRYHEEQLK [G19H]	2.29
HLELTRKLQDLIKDVLRYIEEQLK [G19I]	2.01
HLELTRKLQDLIKDVLRYKEEQLK [G19K]	1.59
HLELTRKLQDLIKDVLRYLEEQLK [G19L]	2.03
HLELTRKLQDLIKDVLRYMEEQLK [G19M]	1.97
HLELTRKLQDLIKDVLRYNEEQLK [G19N]	2.18
HLELTRKLQDLIKDVLRYPEEQLK [G19P]	1.78
HLELTRKLQDLIKDVLRYQEEQLK [G19Q]	1.59
HLELTRKLQDLIKDVLRYREEQLK [G19R]	2.53
HLELTRKLQDLIKDVLRYSEEQLK [G19S]	1.52
HLELTRKLQDLIKDVLRYTEEQLK [G19T]	3.25
HLELTRKLQDLIKDVLRYVEEQLK [G19V]	2.02
HLELTRKLQDLIKDVLRYWEEQLK [G19W]	3.49
HLELTRKLQDLIKDVLRYYEEQLK [G19Y]	1.75
HLELTRKLQDLIKDVLRYGAEQLK [E20A]	2.69

Variant	protein stability index
HLELTRKLQDLIKDVLRYGCEQLK [E20C]	2.57
HLELTRKLQDLIKDVLRYGDEQLK [E20D]	3.65
HLELTRKLQDLIKDVLRYGGEQLK [E20G]	2.66
HLELTRKLQDLIKDVLRYGHEQLK [E20H]	2.58
HLELTRKLQDLIKDVLRYGIEQLK [E20I]	3.44
HLELTRKLQDLIKDVLRYGKEQLK [E20K]	1.7
HLELTRKLQDLIKDVLRYGMEQLK [E20M]	2.81
HLELTRKLQDLIKDVLRYGPEQLK [E20P]	2.51
HLELTRKLQDLIKDVLRYGSEQLK [E20S]	3.54
HLELTRKLQDLIKDVLRYGTEQLK [E20T]	1.74
HLELTRKLQDLIKDVLRYGVEQLK [E20V]	3.74
HLELTRKLQDLIKDVLRYGWEQLK [E20W]	3.32
HLELTRKLQDLIKDVLRYGYEQLK [E20Y]	2.65
HLELTRKLQDLIKDVLRYGEDQLK [E21D]	1.81
HLELTRKLQDLIKDVLRYGEHQLK [E21H]	2.76
HLELTRKLQDLIKDVLRYGEIQLK [E21I]	3.67
HLELTRKLQDLIKDVLRYGEMQLK [E21M]	3.24
HLELTRKLQDLIKDVLRYGENQLK [E21N]	3.29
HLELTRKLQDLIKDVLRYGERQLK [E21R]	2.43
HLELTRKLQDLIKDVLRYGETQLK [E21T]	2.8
HLELTRKLQDLIKDVLRYGEWQLK [E21W]	1.81
HLELTRKLQDLIKDVLRYGEYQLK [E21Y]	3.04
HLELTRKLQDLIKDVLRYGEEALK [Q22A]	1.68
HLELTRKLQDLIKDVLRYGEECLK [Q22C]	1.59
HLELTRKLQDLIKDVLRYGEEDLK [Q22D]	2.43

Variant	protein stability index
HLELTRKLQDLIKDVLRYGEEELK [Q22E]	2.37
HLELTRKLQDLIKDVLRYGEEFLK [Q22F]	2.07
HLELTRKLQDLIKDVLRYGEEGLK [Q22G]	2.62
HLELTRKLQDLIKDVLRYGEEHLK [Q22H]	2.41
HLELTRKLQDLIKDVLRYGEEILK [Q22I]	2.21
HLELTRKLQDLIKDVLRYGEELLK [Q22L]	2.14
HLELTRKLQDLIKDVLRYGEEMLK [Q22M]	1.91
HLELTRKLQDLIKDVLRYGEEPLK [Q22P]	1.79
HLELTRKLQDLIKDVLRYGEERLK [Q22R]	3.19
HLELTRKLQDLIKDVLRYGEESLK [Q22S]	1.84
HLELTRKLQDLIKDVLRYGEEVLK [Q22V]	2.32
HLELTRKLQDLIKDVLRYGEEYLK [Q22Y]	3.18
HLELTRKLQDLIKDVLRYGEEQAK [L23A]	2.36
HLELTRKLQDLIKDVLRYGEEQCK [L23C]	1.09
HLELTRKLQDLIKDVLRYGEEQDK [L23D]	2.53
HLELTRKLQDLIKDVLRYGEEQEK [L23E]	2.24
HLELTRKLQDLIKDVLRYGEEQFK [L23F]	3.59
HLELTRKLQDLIKDVLRYGEEQGK [L23G]	2.57
HLELTRKLQDLIKDVLRYGEEQHK [L23H]	2.15
HLELTRKLQDLIKDVLRYGEEQIK [L23I]	3.49
HLELTRKLQDLIKDVLRYGEEQKK [L23K]	2
HLELTRKLQDLIKDVLRYGEEQNK [L23N]	2.61
HLELTRKLQDLIKDVLRYGEEQPK [L23P]	1.73
HLELTRKLQDLIKDVLRYGEEQQK [L23Q]	2.06
HLELTRKLQDLIKDVLRYGEEQRK [L23R]	2.44

Variant	protein stability index
HLELTRKLQDLIKDVLRYGEEQSK [L23S]	2.31
HLELTRKLQDLIKDVLRYGEEQTK [L23T]	3.42
HLELTRKLQDLIKDVLRYGEEQYK [L23Y]	2.29
HLELTRKLQDLIKDVLRYGEEQLA [K24A]	1.59
HLELTRKLQDLIKDVLRYGEEQLC [K24C]	1.63
HLELTRKLQDLIKDVLRYGEEQLD [K24D]	1.84
HLELTRKLQDLIKDVLRYGEEQLE [K24E]	1.44
HLELTRKLQDLIKDVLRYGEEQLF [K24F]	2.05
HLELTRKLQDLIKDVLRYGEEQLG [K24G]	1.01
HLELTRKLQDLIKDVLRYGEEQLH [K24H]	3.16
HLELTRKLQDLIKDVLRYGEEQLI [K24I]	2.67
HLELTRKLQDLIKDVLRYGEEQLL [K24L]	2.8
HLELTRKLQDLIKDVLRYGEEQLM [K24M]	2.79
HLELTRKLQDLIKDVLRYGEEQLN [K24N]	3.69
HLELTRKLQDLIKDVLRYGEEQLP [K24P]	2.02
HLELTRKLQDLIKDVLRYGEEQLQ [K24Q]	2.48
HLELTRKLQDLIKDVLRYGEEQLS [K24S]	2.66
HLELTRKLQDLIKDVLRYGEEQLT [K24T]	1.6
HLELTRKLQDLIKDVLRYGEEQLV [K24V]	4.54
HLELTRKLQDLIKDVLRYGEEQLY [K24Y]	2.8

Variants of: B2
Assay: as above
Conditions: c terminus: a fixed tail appended

Variant	protein stability index
AQLAYSTVGTPDYIAPEVFMQTGY [R1A]	2.38
CQLAYSTVGTPDYIAPEVFMQTGY [R1C]	2.06
DQLAYSTVGTPDYIAPEVFMQTGY [R1D]	2.71
EQLAYSTVGTPDYIAPEVFMQTGY [R1E]	3.06
FQLAYSTVGTPDYIAPEVFMQTGY [R1F]	3.13
GQLAYSTVGTPDYIAPEVFMQTGY [R1G]	1.95
HQLAYSTVGTPDYIAPEVFMQTGY [R1H]	2.38
IQLAYSTVGTPDYIAPEVFMQTGY [R1I]	1.15
KQLAYSTVGTPDYIAPEVFMQTGY [R1K]	2.71
LQLAYSTVGTPDYIAPEVFMQTGY [R1L]	1.87
MQLAYSTVGTPDYIAPEVFMQTGY [R1M]	1.79
NQLAYSTVGTPDYIAPEVFMQTGY [R1N]	2.82
PQLAYSTVGTPDYIAPEVFMQTGY [R1P]	3.41
QQLAYSTVGTPDYIAPEVFMQTGY [R1Q]	2.47
SQLAYSTVGTPDYIAPEVFMQTGY [R1S]	2.38
TQLAYSTVGTPDYIAPEVFMQTGY [R1T]	2.56
VQLAYSTVGTPDYIAPEVFMQTGY [R1V]	2.45
WQLAYSTVGTPDYIAPEVFMQTGY [R1W]	2.84
YQLAYSTVGTPDYIAPEVFMQTGY [R1Y]	2.51
RALAYSTVGTPDYIAPEVFMQTGY [Q2A]	2.45
RCLAYSTVGTPDYIAPEVFMQTGY [Q2C]	2.42
RDLAYSTVGTPDYIAPEVFMQTGY [Q2D]	2.69

Variant	protein stability index
RELAYSTVGTPDYIAPEVFMQTGY [Q2E]	2.3
RFLAYSTVGTPDYIAPEVFMQTGY [Q2F]	2.55
RGLAYSTVGTPDYIAPEVFMQTGY [Q2G]	1.84
RHLAYSTVGTPDYIAPEVFMQTGY [Q2H]	1.79
RILAYSTVGTPDYIAPEVFMQTGY [Q2I]	1.61
RKLAYSTVGTPDYIAPEVFMQTGY [Q2K]	2.54
RLLAYSTVGTPDYIAPEVFMQTGY [Q2L]	1.7
RMLAYSTVGTPDYIAPEVFMQTGY [Q2M]	2.03
RNLAYSTVGTPDYIAPEVFMQTGY [Q2N]	2.16
RPLAYSTVGTPDYIAPEVFMQTGY [Q2P]	2.5
RRLAYSTVGTPDYIAPEVFMQTGY [Q2R]	3.34
RSLAYSTVGTPDYIAPEVFMQTGY [Q2S]	2.4
RTLAYSTVGTPDYIAPEVFMQTGY [Q2T]	2.53
RVLAYSTVGTPDYIAPEVFMQTGY [Q2V]	1.46
RWLAYSTVGTPDYIAPEVFMQTGY [Q2W]	1.27
RYLAYSTVGTPDYIAPEVFMQTGY [Q2Y]	1.88
RQAAYSTVGTPDYIAPEVFMQTGY [L3A]	2.55
RQCAYSTVGTPDYIAPEVFMQTGY [L3C]	2.06
RQDAYSTVGTPDYIAPEVFMQTGY [L3D]	3.37
RQEAYSTVGTPDYIAPEVFMQTGY [L3E]	3.15
RQFAYSTVGTPDYIAPEVFMQTGY [L3F]	2.33
